{"source": "patent US20090192048A1", "about": "“METHOD OF PRODUCING A […] AGENT FOR BINDING A LIGAND” (priority 2005, published 2009)", "assay_type_in_all_cases": "physicochemical", "key": {"[1]": {"experiment": "Retention of peptides on Greiner polypropylene V-bottom wells", "conditions": "400V scan", "procedure,_shortened": "(§1)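 Peptides (5 μM) and TAMRA dried from 5 mM tris-HCl pH 8.0 in 75% acetonitrile in V-bottom wells; some wells washed 15 min at room temperature with 1 M NaCl in 10 mM tris-HCl pH 8.0. Residue redissolved in 10 mM tris-HCl pH 8.0/50% acetonitrile; retained fluorescence imaged with 532 nm excitation, 580 BP 30 filter.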"}, "[2]": {"experiment": "Retention of peptides in V-bottomed polypropylene wells", "conditions": "V-bottom wells, 500V scan", "procedure,_shortened": "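1 μl of 10 μM peptide or TAMRA in 10 mM Tris-HCl pH 8.0/50% acetonitrile dried in the dark in flat- or V-bottomed polypropylene wells. Some wells washed 15 min at RT with 1 M NaCl in 10 mM Tris pH 8.0, others left untreated; all redissolved in 50 μl Tris/acetonitrile and fluorescence imaged at 532 nm excitation, 580 BP 30 filter.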"}, "[3]": {"experiment": "Time-dependent persistence of peptide 2DOS-2 on a polypropylene hydrophobic surface in aqueous buffer", "description": "The time-dependent persistence of peptide 2DOS-2 (see above) deposited onto a polypropylene hydrophobic surface in the presence of aqueous buffer was investigated as shown below:\nTwelve 100 μl aliquots of 5 μM peptide 2DOS-2 in 5 mM tris-HCl (pH 8.0) in 75% (v/v) aqueous acetonitrile were dispensed to the wells of the top row of a Costar microtitre plate.\nThe peptide samples were allowed to evaporate to dryness in the dark.\nThe dried peptide samples in wells 1-10 were incubated with 250 μl of 1 M NaCl in 10 mM tris-HCl (pH 8.0) for the time indicated below at room temperature. All supernatants were pipetted up and down 8 times after incubation and the supernatants were then removed and placed in the wells of the bottom row of the microtitre plate.\nThe residual surface-bound peptides in all twelve wells were finally resuspended in 50 μl of 10 mM tris-HCl (pH 8.0) in 50% (v/v) aqueous acetonitrile and the microtitre plates were imaged at 200 μm resolution on a Typhoon Trio Plus variable mode imager (Amersham Biosciences) with the green (532 nm) laser and the 580 BP 30 filter at the PMT voltages indicated below and at normal sensitivity. The scan height was set at +3 mm and the sample was pressed during scanning.\nThe fluorescence images were analysed using ImageQuant TL v2003.03 (Amersham Biosciences)."}, "[4]": {"experiment": "Retention of peptides on Greiner polystyrene V-bottom wells", "conditions": "400V scan", "procedure,_shortened": "as §1"}, "[5]": {"experiment": "Retention of peptides 2DOS-1 to 2DOS-16 on a hydrophobic surface (polypropylene microtitre plate wells), water wash", "conditions": "400V scan", "procedure,_shortened": "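10 μM peptides, with TAMRA, in 10 mM tris-HCl pH 8.0 in 50% acetonitrile, dried overnight in polypropylene wells, then washed ten times with water. Retained peptide resuspended in the same solvent and fluorescence imaged (532 nm excitation, 580 nm filter). Quantified from 400 V scans.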"}, "[6]": {"conditions": "washed 15 minutes in 1 M NaCl in 10 mM tris-HCl (pH 8.0)"}}, "note": "Ends that are not written are not given here."}
{"substance": "N-TAMRA-Phe-Asp- Phe-Ala-Phe-Ser- Phe-Lys-Phe-C ({TAMRA}-FDFAFSFKF) [Peptide 2DOS-2]", "values": [{"measurement": "Percent retention", "setting": "[1]", "result": 78, "unit": "%"}, {"measurement": "Untreated fluorescence", "setting": "[1]; unwashed", "result": "3,512,023"}, {"measurement": "Retained fluorescence", "setting": "[1]; [6]", "result": "2,731,827"}, {"measurement": "Percent retention", "setting": "[2]", "result": 86, "unit": "%"}, {"measurement": "Untreated fluorescence", "setting": "[2]; unwashed", "result": "9,495,183"}, {"measurement": "Retained fluorescence", "setting": "[2]; [6]", "result": "8,127,309"}, {"measurement": "Percent retention", "setting": "[3]; 0 minutes in 1 M NaCl/10 mM tris-HCl (pH 8.0)", "result": 90, "unit": "%"}, {"measurement": "Retained fluorescence", "setting": "[3]; 0 minutes in 1 M NaCl/10 mM tris-HCl (pH 8.0), 300V scan", "result": "904,211"}, {"measurement": "Stability of retention on polypropylene over time (in words)", "setting": "[3]; 1 M NaCl/10 mM tris-HCl (pH 8.0), up to 510 minutes", "result": "stable for extended periods of time"}, {"measurement": "Percent retention", "setting": "[3]; 2.5 minutes in 1 M NaCl/10 mM tris-HCl (pH 8.0)", "result": 90, "unit": "%"}, {"measurement": "Retained fluorescence", "setting": "[3]; 2.5 minutes in 1 M NaCl/10 mM tris-HCl (pH 8.0), 300V scan", "result": "902,082"}, {"measurement": "Untreated fluorescence (average)", "setting": "[3]; 300V scan, unwashed wells", "result": "1,000,613"}, {"measurement": "Percent retention", "setting": "[3]; 5 minutes in 1 M NaCl/10 mM tris-HCl (pH 8.0)", "result": 85, "unit": "%"}, {"measurement": "Retained fluorescence", "setting": "[3]; 5 minutes in 1 M NaCl/10 mM tris-HCl (pH 8.0), 300V scan", "result": "847,767"}, {"measurement": "Percent retention", "setting": "[3]; 10 minutes in 1 M NaCl/10 mM tris-HCl (pH 8.0)", "result": 79, "unit": "%"}, {"measurement": "Retained fluorescence", "setting": "[3]; 10 minutes in 1 M NaCl/10 mM tris-HCl (pH 8.0), 300V scan", "result": "792,427"}, {"measurement": "Percent retention", "setting": "[3]; 20 minutes in 1 M NaCl/10 mM tris-HCl (pH 8.0)", "result": 75, "unit": "%"}, {"measurement": "Retained fluorescence", "setting": "[3]; 20 minutes in 1 M NaCl/10 mM tris-HCl (pH 8.0), 300V scan", "result": "749,522"}, {"measurement": "Percent retention", "setting": "[3]; 40 minutes in 1 M NaCl/10 mM tris-HCl (pH 8.0)", "result": 77, "unit": "%"}, {"measurement": "Retained fluorescence", "setting": "[3]; 40 minutes in 1 M NaCl/10 mM tris-HCl (pH 8.0), 300V scan", "result": "769,659"}, {"measurement": "Percent retention", "setting": "[3]; 80 minutes in 1 M NaCl/10 mM tris-HCl (pH 8.0)", "result": 74, "unit": "%"}, {"measurement": "Retained fluorescence", "setting": "[3]; 80 minutes in 1 M NaCl/10 mM tris-HCl (pH 8.0), 300V scan", "result": "740,227"}, {"measurement": "Percent retention", "setting": "[3]; 160 minutes in 1 M NaCl/10 mM tris-HCl (pH 8.0)", "result": 74, "unit": "%"}, {"measurement": "Retained fluorescence", "setting": "[3]; 160 minutes in 1 M NaCl/10 mM tris-HCl (pH 8.0), 300V scan", "result": "739,600"}, {"measurement": "Percent retention", "setting": "[3]; 320 minutes in 1 M NaCl/10 mM tris-HCl (pH 8.0)", "result": 81, "unit": "%"}, {"measurement": "Retained fluorescence", "setting": "[3]; 320 minutes in 1 M NaCl/10 mM tris-HCl (pH 8.0), 300V scan", "result": "805,530"}, {"measurement": "Percent retention", "setting": "[3]; 510 minutes in 1 M NaCl/10 mM tris-HCl (pH 8.0)", "result": 80, "unit": "%"}, {"measurement": "Retained fluorescence", "setting": "[3]; 510 minutes in 1 M NaCl/10 mM tris-HCl (pH 8.0), 300V scan", "result": "803,741"}, {"measurement": "Percent retention", "setting": "[4]", "result": 64, "unit": "%"}, {"measurement": "Untreated fluorescence", "setting": "[4]; unwashed", "result": "614,203"}, {"measurement": "Retained fluorescence", "setting": "[4]; [6]", "result": "392,422"}, {"measurement": "Initial fluorescence (×10^3)", "setting": "[5]; 100 μl of 10 μM peptide before drying and washing", "result": "32,492 ×10^3"}, {"measurement": "Recovered fluorescence (×10^3)", "setting": "[5]; dried, washed ten times with 250 μl water, resuspended", "result": "15,704 ×10^3"}]}
